Experimental data: US20030059827A1, “Engineered protein binding domains and methods and systems for their design and use” (priority 2001, published 2003)
Read-outs that look alike come from different tables or passages of the source.

What was measured:
[1] = biological target: GFP fused to the C-terminal peptide recognized by the original PDZ (pep, CRIPT) (Aequorea victoria, UniProt P42212, F64L/H231L/S65T); conditions: 6XHis-PDZ on Ni-NTA agarose, E. coli extract, anti-GFP Western blot
From the text: (§1) To carry out the affinity chromatography assay, bacterially-expressed PDZ domains and EGFP derivatives were produced and fused to the different target peptides. The original and modified PDZ domains were expressed in E. coli XL1-Blue as fusions with 6XHis. The EGFP-peptides fusions were expressed in E. coli BL21 as described in Sambrook et al, 1989, Molecular Cloning: A Laboratory Manual, 2nd Ed., Vol 3. The bacterially expressed PDZ domains were then bound to nickel resin (Ni-NTA agarose, Quiagen) as described by the manufacturer. The resin-bound PDZ domains were then incubated with E.coli extracts made from bacteria expressing each of the target peptide-GFP fusions and washed four times with 50 mM NaH2PO4, 300 mM NaCl; 20 mM Imidazole; 0,1% of TritonX-100 to remove any unbound proteins. The bound proteins were eluted using 50 mM NaH2PO4, 300 mM NaCl; 200 mM Imidazole and analyzed by Western blot using antibodies against GFP to determine the presence of EGFP fused to the target peptide.

GFP = GFP (Aequorea victoria, UniProt P42212, F64L/H231L/S65T); conditions: 6XHis-PDZ on Ni-NTA agarose, E. coli extract, anti-GFP Western blot
From the text: as §1

[2] = biological target: GFP fused to the Eg5 C-terminal peptide (Mus musculus, UniProt Q6P9P6); conditions: 6XHis-PDZ on Ni-NTA agarose, E. coli extract, anti-GFP Western blot
From the text: as §1

Biotin-GG-KQTSV = biological target: T1, Biotin-GG-KQTSV (Homo sapiens, UniProt Q9P021); assay: Micro-calorimetric assay; assay type: binding
T1 construct: with its natural target (Biotin-GG-KQTSV)
From the text: Physical methods for measuring the dissociation (or affinity) constant include iso-thermal calorimetry, surface plasmon resonance, analytical ultra-centrifagation (where appropriate), and so forth. Iso-thermal calorimetry is the preferred method. Iso-thermal calorimetry measures the heat released when a binding polypeptide binds to its target under constant-temperature, constant-pressure conditions. From these measurements, the thermodynamic parameters of this binding can be routinely determined by the methods of physical chemistry. For example, it is routinely possible to obtain the binding affinity (or dissociation constant), the stoichiometry of binding (n), the heat (or enthalpy) of binding (H), the heat capacity of binding, the entropy of binding, and so forth. Current micro-iso-thermal machines are readily available commercially. Such machines are fully automatic, directly returning the above thermodynamic results. See, e.g., MicoCal, LLC, Northampton. Mass.; www.microcalorimetry.com.
FIG. 14 illustrates the routine use of micro-calorimetry to determine the binding parameters of the wild-type PDZ (PDZ3 of PSD095) domain with its natural target (Biotin-GG-KQTSV). This figure present the output of an automated micro-calorimetry experiment returning the stoichiometry constant (n), the affinity constant (K), the enthalpy of binding (H), and the entropy of binding (S).

[3] = biological target: GFP-PEP (natural target peptide of the PDZ-3 domain, C-terminus of CRIPT) (Aequorea victoria, UniProt P42212, F64L/H231L/S65T); conditions: PDZ fused to Gal4 activation domain, GFP-pep fused to Gal4 binding domain, SD lacking Trp, Leu, His, Adenine
Protocol: The two parts of the yeast two-hybrid system were prepared as follows. On one hand, either of the GFP derivatives carrying the C-terminal protein sequences (GFP-pep and GFP-Eg5) were cloned between the NcoI and BamHI sites the pGBKT7 plasmid (Clontech) to obtain a fusion with the DNA binding domain of Gal4. On the other hand, the modified PDZ domains were cloned between the EcoRI and XhoI sites of pGADT7 (Clontech) to obtain a fusion with the activation domain of Gal4. The resulting plasmids were introduced in the yeast strain J569a using the method described by Agatep et al, 1998. Yeast cells were plated in SD lacking Trp and Leu, and then stricken in selective SD medium lacking Trp, Leu, His, and Adenine. Cells only grow in this selective medium if there is an interaction between the expression products of the two plasmids.
Yeast cells transfected with only one of the two plasmids were also tested as controls.

B1: PDZ-3: third PDZ domain of the mouse PSD-95 protein, amino acid 302 to 402; unmodified redesign precursor (protein, UniProt Q62108 302-402, looked up, fragment)
chain: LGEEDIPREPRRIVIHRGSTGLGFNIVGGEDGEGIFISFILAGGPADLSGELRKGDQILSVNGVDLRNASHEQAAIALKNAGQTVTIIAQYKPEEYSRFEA
modifications: PDZ 3
notes: third PDZ domain of the mouse PSD-95 protein, amino acid 302 to 402; unmodified redesign precursor
- binding of GFP-pep fusion to immobilized PDZ domain [1]: binds only to its naturally recognized target peptide
- binding of GFP-pep fusion to immobilized PDZ domain ([1]; listed as original PDZ): very efficiently bind
- binding of GFP alone to immobilized PDZ domain (GFP): not able to bind
- binding of GFP-Eg5 fusion to immobilized PDZ domain [2]: not able to bind
- Kd (Biotin-GG-KQTSV; corresponding to the measured affinity constant, read-out: dissociation constant): 39 µM
- affinity constant (K) (Biotin-GG-KQTSV; micro-calorimetry, natural target Biotin-GG-KQTSV): 25700 M⁻¹
- viability of transfected yeast cells in selective medium (interaction) [3]: specifically interacts with its target peptide
- viability of transfected yeast cells in selective medium (interaction) ([3]; listed as PGADT7-PDZ): allow viability
